Values of other authors, collected in article PMC5742237.
Where two headings read alike, the source gives them in different places.

Legend:
[1] = target: Transhydrogenase domain I dimer domain I (Rhodospirillum rubrum) (UniProt Q2RSB2)
[2] = target: Transhydrogenase domain I dimer domain I (Rhodospirillum rubrum) (UniProt Q2RSB2); remark: listed apart in the source

Chain of UniProt Q2RSB2 (Q2RSB2 whole entry, the tested form may be a part): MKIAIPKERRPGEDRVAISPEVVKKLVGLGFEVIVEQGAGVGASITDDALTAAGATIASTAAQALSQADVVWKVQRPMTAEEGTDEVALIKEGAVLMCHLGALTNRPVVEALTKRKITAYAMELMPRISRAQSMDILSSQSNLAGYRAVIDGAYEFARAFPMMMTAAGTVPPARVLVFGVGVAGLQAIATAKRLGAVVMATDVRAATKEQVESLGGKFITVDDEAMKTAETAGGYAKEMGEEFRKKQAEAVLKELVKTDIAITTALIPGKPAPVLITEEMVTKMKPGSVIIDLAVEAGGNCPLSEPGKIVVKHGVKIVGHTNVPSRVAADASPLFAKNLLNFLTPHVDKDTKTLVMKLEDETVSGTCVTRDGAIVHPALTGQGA

Transhydrogenase domain III (second) domain III (from UniProt Q2RSB4)
Kd [1]: 10 µM

Transhydrogenase domain III domain III (from UniProt Q2RSB4)
Kd [2]: < 0.06 µM
